Literature values in paper PMC9583766.
pKd: −log10 of the molar value.

Target: plasma prekallikrein (PK) (Homo sapiens) (UniProt P03952)
UniProt P03952, sequence (P03952 20-638): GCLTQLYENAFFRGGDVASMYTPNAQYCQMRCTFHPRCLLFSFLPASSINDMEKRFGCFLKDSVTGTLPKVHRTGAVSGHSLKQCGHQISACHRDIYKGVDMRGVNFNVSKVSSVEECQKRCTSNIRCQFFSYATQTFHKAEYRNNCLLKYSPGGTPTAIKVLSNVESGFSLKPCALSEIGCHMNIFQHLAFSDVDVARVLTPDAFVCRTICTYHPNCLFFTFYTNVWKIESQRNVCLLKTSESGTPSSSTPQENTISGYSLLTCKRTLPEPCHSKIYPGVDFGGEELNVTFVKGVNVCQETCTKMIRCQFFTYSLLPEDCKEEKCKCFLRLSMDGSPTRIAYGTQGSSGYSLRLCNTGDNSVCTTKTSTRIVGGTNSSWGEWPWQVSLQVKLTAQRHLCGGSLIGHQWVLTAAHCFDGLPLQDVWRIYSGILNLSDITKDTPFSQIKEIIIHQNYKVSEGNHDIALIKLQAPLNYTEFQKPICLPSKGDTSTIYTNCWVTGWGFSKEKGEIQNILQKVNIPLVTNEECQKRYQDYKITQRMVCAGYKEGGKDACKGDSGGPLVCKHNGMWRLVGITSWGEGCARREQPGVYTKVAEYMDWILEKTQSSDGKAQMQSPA

pKd: 7.92
Substance: high-molecular-weight kininogen (nHK) (from UniProt P01042)
